PMC3572029

Molecular target: HSF1β-EGFP (heat shock factor 1, short β splicing isoform, fused to EGFP) (mouse)
Sequence (P38532 whole entry, the tested form may be a part, canonical isoform): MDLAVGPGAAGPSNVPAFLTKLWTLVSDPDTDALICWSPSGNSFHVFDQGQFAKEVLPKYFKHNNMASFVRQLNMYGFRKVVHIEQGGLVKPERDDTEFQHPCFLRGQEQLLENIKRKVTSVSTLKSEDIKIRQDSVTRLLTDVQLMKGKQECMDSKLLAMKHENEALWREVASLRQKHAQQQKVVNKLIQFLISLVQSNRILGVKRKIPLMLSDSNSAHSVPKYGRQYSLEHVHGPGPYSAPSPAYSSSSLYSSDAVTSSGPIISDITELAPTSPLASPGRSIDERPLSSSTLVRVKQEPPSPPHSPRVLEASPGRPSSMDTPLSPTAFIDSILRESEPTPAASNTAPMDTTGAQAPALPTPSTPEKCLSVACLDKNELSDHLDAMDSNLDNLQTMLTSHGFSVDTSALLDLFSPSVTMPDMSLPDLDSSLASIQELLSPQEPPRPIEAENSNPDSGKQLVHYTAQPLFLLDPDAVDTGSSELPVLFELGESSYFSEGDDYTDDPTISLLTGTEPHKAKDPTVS

For “HSF2β (heat shock factor 2, short β splicing isoform) (natural protein)”, which HSE-driven firefly luciferase reporter activity of HSF1β in Hsf1.2−/− iMEFs co-transfected with HSF2β, MG132 at 2.5 µM is on record?
The HSE-driven firefly luciferase reporter activity of HSF1β in Hsf1.2−/− iMEFs co-transfected with HSF2β, MG132 at 2.5 µM was 3 fold.
